Experimental data published in the domain aggregation screens of Martell et al. (2025).

Experiment: soluble fraction after stress (log2 fold change); higher = more stays soluble; pooled small domains, quantitative proteomics
Settings: stress: 75 degC
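Also: 20 min heating vs room temperature control held 20 min.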

Row | Sequence | soluble fraction (log2)
1 | HMSTTHLTASVIKDKVNVRSEADSQNGAIIDKARTGERLLVTDYGNKWTGIVLPDGKRGYIMTEYLQF | -0.114
2 | HMSTTSYTQFMEDAKAGKIARVDIKGREITVTPTEGSRYVITSPGDLWMVDDLRKDGVQVYGPP | 0.0558
3 | HMSTTYLNEGDRITLTDSVNIRTSMSETADRVGLAYQGDVVTVIMSYAEGWTKVSWNGQTGYAKTEYL | -1.52
4 | HMSTVIENVFKNFEVYEIKKGDTFYNIEKRFGVNRQELLVLNPELKEGLKLGMVLKIKEIIP | -3.02
5 | HMSTYTETETAYLKAYSAAGVDGKISDSERGILNMTAEALGITVERTTELEAMFNLTVEEEA | -0.0838
6 | HMSVDIWTGAQTGNIEAVKQHLADGVDVNSKSDIGRTALDVAIAFKQPLITDLLRKHGGKTRDELKAAE | ≥ 1.04
7 | HMSVEVADITRAYYEGVGFEWWIRSVRLDPNELIVDNDDEGKLYRVPFEINGEEVTFGDPVEVKIRYE | -0.995
8 | HMSVFGDNVARLRAEHGMSQRALAERLEITNGTVAAWESRDTLPDYDRIRQIAEIFDVPIPQLFAKYIP | -1.54
9 | HMSVISVETAKSKALAHAGLTASKVTFIENKLEWDDGRQVYDIEFYTSDYKEYDYTIDAVSGQVLEFDY | -1.67
10 | HMSVKLMEVKGASTVVSRQVREAVSIVFPTSSMRLDLVALKARIEGVDAVKRADVYLRNGILEIQIDER | -2.11
11 | HMSVKLYPNPTRSVTTFATDVDKWYLYDNQGKLVSEGNTKTIDVTAFPVGIYFVKTIKGNNSTFVKLIV | -2.14
12 | HMSVLNLQTDIPKKYTDVLGTSVKGRLNTLVHNVIINSVDRPVIQMSEEVHEAMQGLRIFMFENVYRNPV | 0.187
13 | HMSVLSEQIKEQLMEDIFHKKYKAGDRIVESALARELGVSQASVREALRSLIAMGFLENEPFKGITVR | -0.000514
14 | HMSVNAPMPGKIVNVLVSEGQKVNSGDVLLILEAMKMQNEIAATQAGTVKAINVAAGQSVKVGDALVN | -0.0534
15 | HMSVPQENKDLLGRSIEIFYAGKTVEAKVTDTGALAPLGRALDLSPATWRAFGASSISDWGVRGVFYRFVA | 0.212
16 | HMSVSTGTITGSVVNLREEPNTSSKVLDKLPKDTVVYVLSASGEWYNVSYGDKTGWVYGEYLA | -0.737
17 | HMSVTSEIGAKIKYFRKSKHFSLQEMADLLYKSKSTLSKYENGQISIDIETLYAIAKVLGVHVEQLLYSEP | -5.12
18 | HMSVTSIEGRVVYDENANKIGIAKQVGIDSTQSMVLVLTKNDGTEGSISWNNIKKIGEIILLGN | -0.908
19 | HMSWAGRRSLAALEARYRDETGISNLKIKHNGVLGYHIEVPSKSADKLMAPDSGFTHRQTLAGAVR | 0.228
20 | HMSYDAINGYEPSDLRGSLTLEQTASMLNLPLTDVYARLGLPANYPSGATLKDGAADMGMGLSDFKHQLF | -0.121
21 | HMSYLDTLPGRRVAAQGAITGDAGTLAVDGDTWSARVEPGAPDVAPGDEVTVLRIDGATLVVRPLP | 0.0276
22 | HMSYPFSEDALKEKIREYLKHNRSINRKVLEAEFHIRKQTALNWLKKLEKSGFLIKEGSRNAPVYFLAE | -1.83
23 | HMSYQADEIKEKLIDILQNQKTGLSGLEISERIGINRITMTKYLQVFAAEGFIKQKNIGNVIIWFIEDGTE | -1.05
24 | HMSYTYPVARLNHIKGKWYVLVSVPAHLRHLFPNQRDLRRSTGTDDESLAKRKQHALAQEIYDLFD | -0.653
25 | HMTAFEPYLVKVMASVLNIRKGPGTSYAITGQIKDKGTYTIVAESGSWGKLKSGAGWISLSYTSKAGKA | -1.82
26 | HMTAFSEQLIKLRKQKGLSQEQLGAAVGVTRQTVSKWELGDTTPELGKLVQLSDYFQLSIDELVGH | -0.703
27 | HMTAGTTALNKLQQGMSTQQVQAALGTPSDRTVKESGVELWKYYYPYENMLLYLKFRDGHLVSFGTN | -0.594
28 | HMTAKQDLDSIYRHLVATRKSIAENPKMVSSIDDPQALIKMLDYAIQYFYTDKRDEALAVLEKNEEQLNFR | -0.347
29 | HMTALTTEDLERRFYAKTYEGESAQKRLARLEISVFGELRQGRPESDRLHDLNNAVLEKERAALNAGAVG | 0.063
30 | HMTAMQYVTIKDIADALGISKSSVSRALAGDVHNVSAQTIERVRAKALEMGYLRNNAAVNLR | -0.413
